Source: PMC10897159, “Structural insights into the activation mechanism of antimicrobial GBP1” (The EMBO Journal, 2024)

How the values were obtained:
[1] = molecular target: T1, human guanylate-binding protein 1 (GBP1), wild-type, non-farnesylated (human), P32455; assay: cross-linking; BS3 at 20-times molar excess, 20 µM protein, with 200 µM GDP, 300 µM AlCl3, 10 mM NaF (GDP•AlFx); 50 mM HEPES, 150 mM NaCl, 5 mM MgCl2; SDS-PAGE; settings: remark: other sources report otherwise
T1 chain: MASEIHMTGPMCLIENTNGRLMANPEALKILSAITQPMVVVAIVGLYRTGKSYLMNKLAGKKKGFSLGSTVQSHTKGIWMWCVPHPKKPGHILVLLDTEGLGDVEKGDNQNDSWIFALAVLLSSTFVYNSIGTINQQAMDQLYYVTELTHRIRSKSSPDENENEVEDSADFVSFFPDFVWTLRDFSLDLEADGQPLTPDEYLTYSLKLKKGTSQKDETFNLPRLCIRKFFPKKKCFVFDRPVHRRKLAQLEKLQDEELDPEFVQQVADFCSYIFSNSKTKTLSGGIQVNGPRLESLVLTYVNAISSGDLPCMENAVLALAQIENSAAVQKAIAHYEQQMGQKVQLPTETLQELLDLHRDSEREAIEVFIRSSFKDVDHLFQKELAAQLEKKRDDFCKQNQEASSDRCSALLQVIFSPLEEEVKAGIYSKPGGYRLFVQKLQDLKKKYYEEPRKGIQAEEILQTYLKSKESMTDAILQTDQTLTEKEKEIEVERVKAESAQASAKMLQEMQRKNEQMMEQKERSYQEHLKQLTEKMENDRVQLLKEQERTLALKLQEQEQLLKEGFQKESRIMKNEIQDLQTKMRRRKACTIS

[2] = molecular target: T1, human guanylate-binding protein 1 …; assay: specific GTPase activity against protein concentration (HPLC), quadratic fit; apparent Kd of dimer formation; non-farnesylated GBP1, 1 mM GTP, 37 °C, 50 mM Tris-HCl pH 7.9, 150 mM NaCl, 5 mM MgCl2; dimer to monomers; settings: remark: other sources report otherwise
[3] = molecular target: T2, human guanylate-binding protein 1 (GBP1), wild-type, farnesylated (human), P32455; assay: cryo-EM structure; single particle analysis of polymeric disks; 5 µM farnesylated GBP1 with GDP•AlFx for 20-30 min, no membranes; ~37 Å; settings: remark: other sources report otherwise
T2 chain: T1 chain

[4] = molecular target: the molecule itself; assay: SEC; analytical SEC (Superdex 200 5/150), 20 µM protein with 200 µM GDP, 300 µM AlCl3, 10 mM NaF (GDP•AlFx); 50 mM Tris-HCl pH 7.9, 150 mM NaCl, 5 mM MgCl2
[5] = molecular target: the molecule itself; assay: specific GDPase activity against protein concentration (HPLC), quadratic fit; apparent Kd of dimer formation; isolated LG domains, 1 mM GDP, 37 °C, 50 mM Tris-HCl pH 7.9, 150 mM NaCl, 5 mM MgCl2; dimer to monomers

B1: human guanylate-binding protein 1 (GBP1), wild-type, non-farnesylated, P32455 1-592 (natural protein)
chain: T1 chain
[1]
  stoichiometry N: 2
[2]
  Kd: 1.9 µM

B2: human guanylate-binding protein 1 (GBP1), wild-type, farnesylated, P32455 1-592 (natural protein)
chain: T1 chain
modifications: here or on the partner: farnesyl moiety at the C-terminal CaaX box motif; farnesyl moiety at the C-terminal CaaX box motif
[3]
  subunits (dimeric building blocks) in a planar polymeric disk: 30 subunits

B3: isolated LG domain of GBP1, wild-type (domain or fragment, human, UniProt P32455 1-317, looked up)
chain: MASEIHMTGPMCLIENTNGRLMANPEALKILSAITQPMVVVAIVGLYRTGKSYLMNKLAGKKKGFSLGSTVQSHTKGIWMWCVPHPKKPGHILVLLDTEGLGDVEKGDNQNDSWIFALAVLLSSTFVYNSIGTINQQAMDQLYYVTELTHRIRSKSSPDENENEVEDSADFVSFFPDFVWTLRDFSLDLEADGQPLTPDEYLTYSLKLKKGTSQKDETFNLPRLCIRKFFPKKKCFVFDRPVHRRKLAQLEKLQDEELDPEFVQQVADFCSYIFSNSKTKTLSGGIQVNGPRLESLVLTYVNAISSGDLPCMENAVL
notes: large GTPase (LG) domain of GBP1, human; stop codon in place of A318 (primer A318*); also called wild-type LG domain; WT; source: E. coli, pQE-80L, purified (Ni Sepharose HP, Superdex 200)
[4]
  stoichiometry N: 2
[5]
  Kd: 110 µM
